According to patent US20060177829A1 (NEW YORK UNIVERSITY, published 2006):
Residue numbers refer to the chain shown, from its start.

Columns and labels:
[1] = target: T1, Flag-tagged β-TrCP2 (Fbw1b) (human, UniProt Q9UKB1 1-542); assay: anti-Flag immunoprecipitation from transfected HeLa cells, blot for Cdc25A
T1 construct: F-box protein expressed from a Flag-tagged construct in HeLa cells; also called beta-TrCP2; not shown: Flag tag
T1 sequence: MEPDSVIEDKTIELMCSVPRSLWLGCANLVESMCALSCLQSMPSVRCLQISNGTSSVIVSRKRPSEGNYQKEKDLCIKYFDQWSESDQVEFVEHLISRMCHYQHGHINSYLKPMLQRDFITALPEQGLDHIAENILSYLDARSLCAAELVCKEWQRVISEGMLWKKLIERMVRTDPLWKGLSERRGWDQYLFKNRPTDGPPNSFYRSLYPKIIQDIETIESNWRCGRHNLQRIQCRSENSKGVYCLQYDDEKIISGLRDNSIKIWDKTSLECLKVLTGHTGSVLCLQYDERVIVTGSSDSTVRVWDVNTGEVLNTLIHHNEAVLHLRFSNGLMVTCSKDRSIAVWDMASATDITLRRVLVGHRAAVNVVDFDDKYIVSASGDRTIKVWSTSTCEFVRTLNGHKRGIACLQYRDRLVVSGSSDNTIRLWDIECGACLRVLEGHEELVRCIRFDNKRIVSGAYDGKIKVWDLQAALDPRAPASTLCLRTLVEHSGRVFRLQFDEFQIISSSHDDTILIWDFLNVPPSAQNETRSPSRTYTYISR
From the text: (§1) FIG. 1. Cdc25A interacts with beta-TrCP1 and beta-TrCP2 in vivo (I). HeLa cells were transfected with the indicated Flag-tagged F-box protein constructs. F-box proteins were immunoprecipitated from extracts with an anti-Flag resin and immunocomplexes were blotted with Cul1, Cdc25A and Flag specific antibodies.

[2] = target: T2, Flag-tagged β-TrCP1 (Fbw1a) (human, UniProt Q9Y297 1-605); assay: as above
T2 construct: F-box protein expressed from a Flag-tagged construct in HeLa cells and pulled down with anti-Flag resin; also called beta-TrCP1; Flag-beta-TrCP1; not shown: Flag tag
T2 sequence: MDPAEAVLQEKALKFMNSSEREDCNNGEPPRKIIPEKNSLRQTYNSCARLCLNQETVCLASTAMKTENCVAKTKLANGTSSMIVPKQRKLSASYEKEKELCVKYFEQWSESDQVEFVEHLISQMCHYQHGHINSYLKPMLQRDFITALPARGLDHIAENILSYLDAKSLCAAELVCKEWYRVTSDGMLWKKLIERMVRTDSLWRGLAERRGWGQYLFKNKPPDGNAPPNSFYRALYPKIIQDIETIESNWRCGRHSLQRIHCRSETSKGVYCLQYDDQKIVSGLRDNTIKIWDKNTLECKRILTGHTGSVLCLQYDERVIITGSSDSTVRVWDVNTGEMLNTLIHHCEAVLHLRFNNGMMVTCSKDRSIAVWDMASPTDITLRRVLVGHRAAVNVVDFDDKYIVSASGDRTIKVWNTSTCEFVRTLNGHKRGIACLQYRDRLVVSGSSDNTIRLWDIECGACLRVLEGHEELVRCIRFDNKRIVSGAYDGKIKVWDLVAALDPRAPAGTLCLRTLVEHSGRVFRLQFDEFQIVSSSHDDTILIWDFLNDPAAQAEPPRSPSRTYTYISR
From the text: as §1

[3] = target: T3, β-TrCP1 (endogenous) (human, UniProt Q9Y297 1-605); assay: Flag-tagged Cdc25A immunocomplexes blotted for β-TrCP1
T3 construct: also called beta-TrCP
T3 sequence: T2 sequence

[4] = target: T4, Skp1 (endogenous) (human, UniProt P63208 2-163); assay: Flag-tagged Cdc25A immunocomplexes blotted for Skp1
T4 construct: Human by the cell lines used
T4 sequence (P63208 2-163 limits assumed): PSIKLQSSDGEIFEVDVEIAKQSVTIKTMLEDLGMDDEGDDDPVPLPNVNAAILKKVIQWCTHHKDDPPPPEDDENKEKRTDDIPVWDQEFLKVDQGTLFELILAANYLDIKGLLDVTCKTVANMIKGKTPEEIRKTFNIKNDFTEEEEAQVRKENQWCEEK

[5] = target: T5, Cul1 (endogenous) (human, UniProt Q13616 1-776); assay: Flag-tagged Cdc25A immunocomplexes blotted for Cul1
T5 construct: Human by the cell lines used; also called Cul1 subunit
T5 sequence (Q13616 whole entry): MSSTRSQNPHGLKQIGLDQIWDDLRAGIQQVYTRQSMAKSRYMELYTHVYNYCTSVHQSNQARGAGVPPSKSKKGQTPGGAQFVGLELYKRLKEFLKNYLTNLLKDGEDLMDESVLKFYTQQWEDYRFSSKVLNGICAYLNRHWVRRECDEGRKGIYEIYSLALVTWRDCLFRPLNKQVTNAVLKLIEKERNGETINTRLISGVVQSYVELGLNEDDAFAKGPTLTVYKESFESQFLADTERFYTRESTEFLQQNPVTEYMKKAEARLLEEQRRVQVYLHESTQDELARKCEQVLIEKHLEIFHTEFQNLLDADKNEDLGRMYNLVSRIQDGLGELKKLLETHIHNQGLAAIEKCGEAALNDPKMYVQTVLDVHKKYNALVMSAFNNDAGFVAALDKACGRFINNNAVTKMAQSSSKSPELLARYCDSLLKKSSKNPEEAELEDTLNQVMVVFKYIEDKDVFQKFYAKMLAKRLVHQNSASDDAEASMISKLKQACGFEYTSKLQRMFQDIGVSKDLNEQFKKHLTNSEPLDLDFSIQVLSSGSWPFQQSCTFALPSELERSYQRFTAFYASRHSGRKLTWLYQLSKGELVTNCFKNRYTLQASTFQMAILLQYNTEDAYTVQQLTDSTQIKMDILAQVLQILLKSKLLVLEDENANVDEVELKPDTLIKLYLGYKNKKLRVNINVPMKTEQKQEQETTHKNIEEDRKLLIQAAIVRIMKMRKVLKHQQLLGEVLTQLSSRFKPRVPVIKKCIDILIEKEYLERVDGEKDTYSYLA

[6] = target: T6, Flag-tagged Fbw7 (form not stated, FIG. 2) (human, UniProt Q969H0 1-707, limits assumed); assay: anti-Flag immunoprecipitation from HeLa cells co-transfected with His-Cdc25A, blot for Cdc25A
T6 construct: The Fbw7 of the parallel experiment with overexpressed Cdc25A; not shown: Flag tag
T6 sequence (Q969H0 whole entry): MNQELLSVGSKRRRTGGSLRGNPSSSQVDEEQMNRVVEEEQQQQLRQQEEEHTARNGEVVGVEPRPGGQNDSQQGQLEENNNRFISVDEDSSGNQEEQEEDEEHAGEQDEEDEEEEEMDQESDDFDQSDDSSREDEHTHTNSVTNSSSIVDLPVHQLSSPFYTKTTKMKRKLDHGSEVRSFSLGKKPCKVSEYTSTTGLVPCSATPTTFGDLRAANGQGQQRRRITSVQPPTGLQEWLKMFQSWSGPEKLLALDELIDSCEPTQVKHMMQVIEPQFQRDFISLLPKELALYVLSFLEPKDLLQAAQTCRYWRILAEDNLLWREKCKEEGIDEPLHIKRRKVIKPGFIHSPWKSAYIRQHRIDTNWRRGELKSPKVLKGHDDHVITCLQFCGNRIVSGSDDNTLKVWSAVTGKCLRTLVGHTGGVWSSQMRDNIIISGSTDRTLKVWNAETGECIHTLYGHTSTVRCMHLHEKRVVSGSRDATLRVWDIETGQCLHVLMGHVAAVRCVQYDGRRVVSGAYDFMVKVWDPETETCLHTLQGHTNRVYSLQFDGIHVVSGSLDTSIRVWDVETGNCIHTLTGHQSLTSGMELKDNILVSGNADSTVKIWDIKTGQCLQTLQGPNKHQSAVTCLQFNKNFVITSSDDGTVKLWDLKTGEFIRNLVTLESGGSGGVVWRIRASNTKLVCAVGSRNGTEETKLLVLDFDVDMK

[7] = target: T1, Flag-tagged β-TrCP2 (Fbw1b); assay: as above
[8] = target: T2, Flag-tagged β-TrCP1 (Fbw1a); assay: as above
[9] = target: T7, Flag-tagged Skp2 (human, UniProt Q13309 1-424, limits assumed); assay: as above
T7 construct: not shown: Flag tag
T7 sequence (Q13309 whole entry): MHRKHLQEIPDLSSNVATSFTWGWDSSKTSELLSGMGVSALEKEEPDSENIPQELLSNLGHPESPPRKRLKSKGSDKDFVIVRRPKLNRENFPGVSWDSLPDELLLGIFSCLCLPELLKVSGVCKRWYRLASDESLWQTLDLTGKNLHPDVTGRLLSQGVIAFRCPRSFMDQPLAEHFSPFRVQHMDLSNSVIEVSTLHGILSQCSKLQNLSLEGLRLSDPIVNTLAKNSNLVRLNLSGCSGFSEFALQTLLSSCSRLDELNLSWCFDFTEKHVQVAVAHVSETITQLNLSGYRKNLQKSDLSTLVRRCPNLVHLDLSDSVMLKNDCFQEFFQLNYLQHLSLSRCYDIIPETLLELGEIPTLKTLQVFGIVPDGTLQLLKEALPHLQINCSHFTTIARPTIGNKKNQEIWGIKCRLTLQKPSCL

[10] = target: T2, Flag-tagged β-TrCP1 (Fbw1a); assay: co-expression in HeLa cells, anti-Flag β-TrCP1 immunocomplexes blotted for Cdc25A

B1: Cdc25A (endogenous, HeLa cells) (enzyme)
chain: MELGPSPAPRRLLFACSPPPASQPVVKALFGASAAGGLSPVTNLTVTMDQLQGLGSDYEQPLEVKNNSNLQRMGSSESTDSGFCLDSPGPLDSKENLENPMRRIHSLPQKLLGCSPALKRSHSDSLDHDIFQLIDPDENKENEAFEFKKPVRPVSRGCLHSHGLQEGKDLFTQRQNSAQLGMLSSNERDSSEPGNFIPLFTPQSPVTATLSDEDDGFVDLLDGENLKNEEETPSCMASLWTAPLVMRTTNLDNRCKLFDSPSLCSSSTRSVLKRPERSQEESPPGSTKRRKSMSGASPKESTNPEKAHETLHQSLSLASSPKGTIENILDNDPRDLIGDFSKGYLFHTVAGKHQDLKYISPEIMASVLNGKFANLIKEFVIIDCRYPYEYEGGHIKGAVNLHMEEEVEDFLLKKPIVPTDGKRVIVVFHCEFSSERGPRMCRYVRERDRLGNEYPKLHYPELYVLKGGYKEFFMKCQSYCEPPSYRPMHHEDFKEDLKKFRTKSRTWAGEKSKREMYSRLKKL
modifications: hyperphosphorylated in the form that co-precipitates with beta-TrCP (λ-phosphatase gave a faster migrating band); sites not mapped in that experiment
notes: also called cell division cycle 25A
B1: binds [1]; binds [2].

B2: Flag-tagged Cdc25A DSG2x (enzyme)
chain: B1 chain with S81A, S87A
notes: Point mutant of the full-length pCDNA3.1-Flag-Cdc25A construct; also called DSG2x mutated protein; DSG2x protein; not shown: Flag tag from pCDNA3.1-Flag vector
B2: no binding [3]; no binding [4]; no binding [5].

B3: His-Cdc25A (overexpressed wild type) (enzyme)
chain: B1 chain
notes: also called overexpressed Cdc25A; not shown: His tag
B3: no binding [6]; binds [7]; binds [8]. B3: no binding [9].

B4: His-tagged Cdc25A DSG2x (enzyme)
chain: B1 chain with S81A, S87A
notes: not shown: His tag
B4: no binding [10].

B5: His-tagged Cdc25A DSG3x (enzyme)
chain: B1 chain with S78A, S81A, S87A
notes: not shown: His tag
B5: no binding [10].
